One may read the Km as the concentration of substrate that gives half-maximal velocity.

This is an account of results in patent USRE48805E1, “Method for cancer targeting treatment and detection of arginine using albumin-binding arginine deiminase fusion protein” (Vision Global Holdings Ltd., priority 2013, dated 2021).

The test system of data set [1] is N=C(N)NCCC[C@H](N)C(=O)O. In words: Enzyme kinetics (Km), citrulline detection by DAM-TSC assay. Format: biochemical, Mycoplasma arginini. As to conditions: other: substrate arginine (62.5-2000 μM), pH 7.4. The procedure:
(§1) To determine the enzyme activity for wild-type ADI and AAD fusion protein in the present invention, the diacetyl monoxime (DAM)-thiosemicarbazide (TSC) assay for citrulline detection is used. The reaction is shown below. L-Arginine argininedeiminase(ADI)orAADfusion>L-Citrulline+Ammonia
(§2) This assay is run by adding sample to a color reagent, which is made by mixing acidic ferric chloride solution with DAM-TSC solution. […] The reaction mixture is heated at 100° C. for […] to develop the color and read at 540 nm (light path=1 cm). A standard curve is constructed using various concentrations of citrulline. One unit of the ADI native enzyme is the amount of enzyme activity that converts 1 μmol of arginine to 1 μmol of citrulline per minute at 37° C. under the assay conditions. The specific activities of wild-type ADI, pegylated ADI (Ensor et al., Cancer Res. 62:5443-5450, 2002) and AAD fusion protein in the present invention are about 20, 15 and 19 U/mg (at pH 7.4, physiological pH), respectively. The specific activities for wild-type ADI and AAD fusion protein at different pH values (in a range from pH 5.5 to 9.5) are also determined, and the optimum pH is at 6.5.
(§3) The Michaelis constant Km is the substrate concentration at which the reaction rate is at half-maximum, and is an inverse measure of the substrate's affinity for the enzyme. […]

In data set [2] the test system is N=C(N)NCCC[C@H](N)C(=O)O. Described as above. Format: biochemical, Bacillus cereus. As to conditions: other: substrate arginine (62.5-2000 μM), pH 7.4. The procedure:
as §1, §2, §3

“AAD fusion protein His-ABD-PolyN-ADI (FIG. 3E), SEQ ID NO: 40, ADI originated from Mycoplasma arginini (Mycoplasmopsis arginini)”: the Km in the data set with N=C(N)NCCC[C@H](N)C(=O)O [1] worked out at 4.1 µM.

Regarding “AAD fusion protein His-ABD-PolyN-bcADI (FIG. 3F), SEQ ID NO: 41, ADI originated from Bacillus cereus (Bacillus cereus AH820)”, the Km with N=C(N)NCCC[C@H](N)C(=O)O [2] came to 0.132 mM.
